Positions count from the first letter of the chain named. Where two headings read alike, the source gives them in different places.
T1: T cell receptor alpha/beta on purified primary human T cells (human, UniProt P01848 1-140; P01850 1-176)
T1 construct: whole, on cells; also called human primary T cells
T1 TCR alpha (looked up): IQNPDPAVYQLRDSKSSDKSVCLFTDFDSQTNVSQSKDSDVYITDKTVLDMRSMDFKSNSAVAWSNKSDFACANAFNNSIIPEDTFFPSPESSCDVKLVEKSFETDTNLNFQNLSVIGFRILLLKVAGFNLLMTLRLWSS
T1 TCR beta (looked up): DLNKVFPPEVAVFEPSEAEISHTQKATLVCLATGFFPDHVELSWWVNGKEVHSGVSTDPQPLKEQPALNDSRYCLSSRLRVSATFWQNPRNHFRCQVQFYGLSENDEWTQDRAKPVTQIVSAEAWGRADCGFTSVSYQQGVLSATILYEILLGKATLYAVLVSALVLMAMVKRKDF

T2: human CD20 on cells (human, UniProt P11836 1-297)
T2 construct: whole, on cells; Tumour antigen on the target cells; also called CD20 positive Ramos cells; Ramos cells
T2 sequence (looked up): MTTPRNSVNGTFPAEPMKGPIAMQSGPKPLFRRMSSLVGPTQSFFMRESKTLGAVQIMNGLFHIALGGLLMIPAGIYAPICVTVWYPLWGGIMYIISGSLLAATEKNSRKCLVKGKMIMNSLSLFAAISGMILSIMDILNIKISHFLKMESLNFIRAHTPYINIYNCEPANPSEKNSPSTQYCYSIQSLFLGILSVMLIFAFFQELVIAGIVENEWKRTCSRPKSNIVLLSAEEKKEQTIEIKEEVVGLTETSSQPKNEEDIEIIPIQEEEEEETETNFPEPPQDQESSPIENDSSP

B1: T017000107 (other)
chain: EVQLVESGGGLVQAGGSLRLSCAASGRTFSSYVMGWFRQATGKEREFVATIAWDSGSTYYADSVKGRFTISRDNAKNTVHLQMNSLKPEDTAVYYCAASYNVYYNNYYYPISRDEYDYWGQGTLVTVSSGGGGSGGGGSGGGGSGGGGSGGGGSGGGGSGGGGSEVQLVESGGGSVQAGGSLRLSCAASGDTYGSYWMGWFRQAPGKEREGVAAINRGGGYTVYADSVKGRFTISRDTAKNTVYLQMNSLRPDDTADYYCAASGVLGGLHEDWFNYWGQGTLVTVSSGGGGSGGGGSGGGGSGGGGSGGGGSGGGGSGGGGSEVQLVESGGGLVQPGGSLRLSCVASGDVHKINFLGWYRQAPGKEREKVAHISIGDQTDYADSAKGRFTISRDESKNMVYLQMNSLKPEDTAVYFCRAFSRIYPYDYWGQGTLVTVSSGAADYKDHDGDYKDHDIDYKDDDDKGAAHHHHHH
notes: EGFR x CEACAM5 x TCR multispecific Nanobody construct; entry includes the FLAG3-HIS6 tag; also called EGFR038G07-35GS-NbCEA5-35GS-T0170056G05-FLAG3-HIS6
B2: T0170061G01 (VHH)
VHH: EVQLVESGGGLVQPGGSLRLSCAASGEIGRINFYRWYRQAPGNQREVVATITIADKTDYADSAKGRFTISRDESRNMVYLQMSSLKPEDTAVYFCHAGSRLYPYDYWGQGTQVTVSS
notes: Monovalent anti-TCR Nanobody, cluster C; expressed in E. coli as triple Flag, His6-tagged protein; also called T0170PMP061G01; not shown: C-terminal triple Flag-His6 tag of the E. coli-expressed monovalent
B3: T017000031 (bispecific antibody)
chain: EVQLVESGGGLVQPGGSLRLSCITSGETFKINIWGWYRQAPGKQRELVASLTIGGATNYADSVKGRFTISEDSAKNTVYLQMNSLKPEDTAVYFCNAKSRLYPYDYWGQGTLVTVSSGGGGSGGGGSGGGGSGGGGSGGGGSGGGGSGGGGSEVQLVESGGGLVQPGGSLRLSCTFSGGTFSSYTMGWFRQAPGKEREFVAEVRWGGVTTYSNSLKDRFSISEDSVKNAVYLQMNSLKPEDTAVYYCAAVRQMYMTVVPDYWGQGTLVTVSSGAADYKDHDGDYKDHDIDYKDDDDKGAAHHHHHH
notes: TCR x CD20 bispecific Nanobody construct (cluster B); entry includes the FLAG3-HIS6 tag; also called T0170055C07-35GS-20CD019C07-FLAG3-HIS6
B4: T017000051 (bispecific antibody)
chain: EVQLVESGGGLVQPGGSLRLSCTFSGGTFSSYTMGWFRQAPGKEREFVAEVRWGGVTTYSNSLKDRFSISEDSVKNAVYLQMNSLKPEDTAVYYCAAVRQMYMTVVPDYWGQGTLVTVSSGGGGSGGGGSGGGGSGGGGSGGGGSGGGGSGGGGSEVQLVESGGGLVQPGGSLRLSCAASGEIGRINFYRWYRQAPGNQREVVATITIADKTDYADSAKGRFTISRDESRNMVYLQMSSLKPEDTAVYFCHAGSRLYPYDYWGQGTLVTVSSGAADYKDHDGDYKDHDIDYKDDDDKGAAHHHHHH
notes: CD20 x TCR bispecific Nanobody construct (cluster C); entry includes the FLAG3-HIS6 tag; also called 20CD019C07-35GS-T0170061G01-FLAG3-HIS6
B5: T017000038 (bispecific antibody)
chain: EVQLVESGGGLVQPGGSLRLSCAASGEIGRINFYRWYRQAPGNQREVVATITIADKTDYADSAKGRFTISRDESRNMVYLQMSSLKPEDTAVYFCHAGSRLYPYDYWGQGTLVTVSSGGGGSGGGGSGGGGSGGGGSGGGGSGGGGSGGGGSEVQLVESGGGLVQPGGSLRLSCTFSGGTFSSYTMGWFRQAPGKEREFVAEVRWGGVTTYSNSLKDRFSISEDSVKNAVYLQMNSLKPEDTAVYYCAAVRQMYMTVVPDYWGQGTLVTVSSGAADYKDHDGDYKDHDIDYKDDDDKGAAHHHHHH
notes: TCR x CD20 bispecific Nanobody construct (cluster C); entry includes the FLAG3-HIS6 tag; also called T0170061G01-35GS-20CD019C07-FLAG3-HIS6
B6: T017000042 (bispecific antibody)
chain: EVQLVESGGGLVQPGGSLRLSCAASGDVHKINILGWYRQAPAKEREMVAHITIGDATDYADSAKGRFTISRDEAKNMVYLQMNSLKPEDTAVYFCRAYSRIYPYNYWGQGTLVTVSSGGGGSGGGGSGGGGSGGGGSGGGGSGGGGSGGGGSEVQLVESGGGLVQPGGSLRLSCTFSGGTFSSYTMGWFRQAPGKEREFVAEVRWGGVTTYSNSLKDRFSISEDSVKNAVYLQMNSLKPEDTAVYYCAAVRQMYMTVVPDYWGQGTLVTVSSGAADYKDHDGDYKDHDIDYKDDDDKGAAHHHHHH
notes: TCR x CD20 bispecific Nanobody construct (cluster A); entry includes the FLAG3-HIS6 tag; also called T0170055A02-35GS-20CD019C07-FLAG3-HIS6
B7: T017000074 (bispecific antibody)
chain: B6 chain with A23V, I33F, A42G, M47K, T52S, A56Q, A74S, Y98F, N105D
notes: TCR x CD20 bispecific Nanobody construct (cluster A); entry includes the FLAG3-HIS6 tag; also called T0170056G05-35GS-20CD019C07-FLAG3-HIS6
B8: T017000055 (bispecific antibody)
chain: EVQLVESGGGLVQPGGSLRLSCTFSGGTFSSYTMGWFRQAPGKEREFVAEVRWGGVTTYSNSLKDRFSISEDSVKNAVYLQMNSLKPEDTAVYYCAAVRQMYMTVVPDYWGQGTLVTVSSGGGGSGGGGSGGGGSGGGGSGGGGSGGGGSGGGGSEVQLVESGGGLVQPGGSLRLSCAASGDVHKINILGWYRQAPAKEREMVAHITIGDATDYADSAKGRFTISRDEAKNMVYLQMNSLKPEDTAVYFCRAYSRIYPYNYWGQGTLVTVSSGAADYKDHDGDYKDHDIDYKDDDDKGAAHHHHHH
notes: entry includes the FLAG3-HIS6 tag; also called 20CD019C07-35GS-T0170055A02-FLAG3-HIS6

Tests used:
EGFR on cells [1] = target: T3, EGFR on cells (UniProt P00533 25-1210, limits assumed); assay: cell-based or functional assay
EGFR on cells [2] = target: T3, EGFR on cells; assay: flow cytometry, HER14 cells
[3] = target: T4, human CD3 expressed on HEK293H cells (human, UniProt P04234 22-171; P09693 23-182; P07766 23-207; P20963 22-164); assay: flow cytometry on HEK293H human CD3 cells, MCF
T4 construct: also called HEK293H human CD3; HEK293H CD3
Description: (§1) Binding of purified monovalent anti-TCR Nanobodies to human TCR(2IAN)/CD3 expressed on HEK293H cells was evaluated and compared with the binding to HEK293H cells transfected with human CD3 in flow cytometry, as outlined in Example 5. Dilution series of anti-TCR Nanobodies starting from 1 μM were applied to the cells. The parental HEK293H cell line was included as TCR/CD3 negative cell line.

[4] = target: T4, human CD3 expressed on HEK293H cells; assay: flow cytometry, HEK293H human CD3 cells
Description: as §1
Nanobodies clearly bound to human TCR(2IAN)/CD3 expressed on HEK293H but not to the HEK293H cells transfected with human CD3 only, nor to the HEK293H parental cell line. The EC50 values obtained from the dose response curve are depicted in Table C-2.

[5] = target: T1, T cell receptor alpha/beta on purified …; assay: flow cytometry, purified primary human T cells
Description: Periplasmic extracts were screened for cell expressed TCR/CD3 binding using human TCR/CD3 transfected CHO-K1 or HEK293H cells and the respective CHO-K1 or HEK293H reference cell line in a mixed cell line setup. To this end, a large batch of the reference cell lines were labelled with 8 μM PKH26 and frozen. 5×10⁴ PKH labelled reference cells were mixed with 5×10⁴ target cells and incubated with periplasmic extracts for 30 min at 4′C, and washed 3 times. […] Samples were washed, resuspended in FACS Buffer (D-PBS from Gibco, with 10% FBS from Sigma and 0.05% sodium azide from Merck) and then analysed via a BD FACSArray. […] In this gate, 20,000 cells were counted during acquisition. Based on PKH26-SSC distribution, the PKH labelled parental population and the human TCR/CD3 unlabelled target population was selected. For these 2 populations the mean APC value was calculated.
Binding of purified monovalent anti-TCR Nanobodies to human TCR(2XN9)/CD3 expressed on CHO-K1 cells and to purified primary human T cells was evaluated in flow cytometry as outlined in Example 4.1.

human CD20 on cells [6] = target: T2, human CD20 on cells; assay: flow cytometry, Ramos cells
[7] = target: T1, T cell receptor alpha/beta on purified …; assay: flow cytometry, purified primary human T cells
[8] = target: T5, T cell receptor alpha/beta on primary cynomolgus T cells (cynomolgus); assay: cell-based or functional assay
[9] = target: T5, T cell receptor alpha/beta on primary …; assay: cell-based or functional assay; remark: listed apart in the source
human CD20 on cells [10] = target: T2, human CD20 on cells; assay: cell-based or functional assay
human CD20 on cells [11] = target: T2, human CD20 on cells; assay: cell-based or functional assay; remark: listed apart in the source

T4 sequence (P04234 22-171 limits assumed, chain 1 of 4): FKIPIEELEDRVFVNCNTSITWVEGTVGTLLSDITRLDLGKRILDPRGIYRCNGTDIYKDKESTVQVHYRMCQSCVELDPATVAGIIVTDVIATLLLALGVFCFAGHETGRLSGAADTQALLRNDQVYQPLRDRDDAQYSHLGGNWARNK
T4 sequence (P09693 23-182 limits assumed, chain 2 of 4): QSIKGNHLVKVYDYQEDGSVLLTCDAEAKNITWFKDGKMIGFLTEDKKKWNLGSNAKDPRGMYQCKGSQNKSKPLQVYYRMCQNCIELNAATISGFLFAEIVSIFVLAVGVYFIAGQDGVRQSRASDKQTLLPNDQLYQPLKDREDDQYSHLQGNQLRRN
T4 sequence (P07766 23-207 limits assumed, chain 3 of 4): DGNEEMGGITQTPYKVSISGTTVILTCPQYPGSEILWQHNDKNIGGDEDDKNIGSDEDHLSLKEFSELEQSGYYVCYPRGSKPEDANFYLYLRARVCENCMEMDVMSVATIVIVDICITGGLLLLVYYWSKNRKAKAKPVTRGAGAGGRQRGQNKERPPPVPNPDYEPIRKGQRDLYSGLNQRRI
T4 sequence (P20963 22-164 limits assumed, chain 4 of 4): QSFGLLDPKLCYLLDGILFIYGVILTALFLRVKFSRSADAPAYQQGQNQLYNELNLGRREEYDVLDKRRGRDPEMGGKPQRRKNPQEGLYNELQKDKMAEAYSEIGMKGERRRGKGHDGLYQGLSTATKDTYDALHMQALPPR

| Binder | IC50, xCELLigence human T cell mediated killing of HER14 cells, E:T 15, 50-60 h (EGFR on cells [1]) [nM] | EC50 (EGFR on cells [2]) [nM] | Top (EGFR on cells [2]) | binding result [3] | MCF at 1 µM [4] [MCF] | EC50 [5] [nM] | EC50 (human CD20 on cells [6]) [nM] | EC50 [7] [nM] | IC50, xCELLigence cynomolgus T cell mediated CHO-K1 human CD20 killing assay, E:T 30:1 [8] [nM] | IC50, flow cytometry based cynomolgus T cell mediated B cell (Ramos) killing assay [9] [nM] | IC50, xCELLigence human T cell mediated CHO-K1 CD20 killing assay, E:T 30:1, 44 h (human CD20 on cells [10]) [nM] | IC50, flow cytometry based human T cell mediated Ramos killing assay, E:T 10:1 (human CD20 on cells [11]) [nM] |
| --- | --- | --- | --- | --- | --- | --- | --- | --- | --- | --- | --- | --- |
| B1 | 0.14 | 1.6 | 146000 |  |  |  |  |  |  |  |  |  |
| B2 |  |  |  | no binding (tested: 1e-6 M) | 495 | > 100 |  |  |  |  |  |  |
| B3 |  |  |  |  |  |  | 23 | 350 | 1.2 | 0.79 | 2.1 | 1.1 |
| B4 |  |  |  |  |  |  | 2.7 | > 100 |  |  | 27 | 0.57 |
| B5 |  |  |  |  |  |  | 21 | > 100 |  |  | 4.1 | 2.7 |
| B6 |  |  |  |  |  |  | 20 | 230 | 0.89 | 0.17 | 4.2 | 5.7 |
| B7 |  |  |  |  |  |  | 16 | 190 | 0.12 | 0.24 | 1.5 | 0.92 |
| B8 |  |  |  |  |  |  | 1.8 | 130 | 0.99 | 0.569 | 1.4 | 0.53 |

Reference: patent US20190112392A1 (Ablynx, published 2019)
